Biological target: T1, MCSF (Homo sapiens, UniProt P09603)
T1 sequence (P09603 33-255 limits assumed): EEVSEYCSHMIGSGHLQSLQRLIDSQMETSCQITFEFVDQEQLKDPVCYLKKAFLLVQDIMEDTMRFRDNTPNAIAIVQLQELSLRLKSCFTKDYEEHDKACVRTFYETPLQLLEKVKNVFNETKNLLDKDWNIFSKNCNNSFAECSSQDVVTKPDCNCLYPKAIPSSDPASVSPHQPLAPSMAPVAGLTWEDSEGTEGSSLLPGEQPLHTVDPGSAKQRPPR
Assay: M-NFS-60 proliferation assay, neutralizing activity (Example 14)
Type: cell-based
Settings: Table 12; relative IC50, M-NFS-60 proliferation, 10 ng/ml M-CSF, 72 hours
Excerpt: To test the neutralizing activity of M-CSF antibodies, a proliferation assay of M-NFS-60 cell line was used (American Type Culture Collection, Accession No. CRL-1838, available from ATCC in Rockville, Md., USA, derived from a myologenous leukemia induced with the Cas-Br.MuLV wild mouse ecotropic retrovirus. The cell line responds to both interleukin 3 and M-CSF and contains a truncated c-myb proto-oncogene caused by the integration of a retrovirus). Proliferation of M-NFS-60 requires active M-CSF in a dose-dependent fashion. In the assay, M-NFS-60 cells were washed and plated in RPIM1640 medium with 10% FBS and 1% Pen/Strep. […] Cells were incubated at 37° C. under 5% CO2 for 72 hours before cell numbers were quantified by CellTiter Glo assay (Promega). […] The IC50 of each antibody was analyzed by curve fit.
The assay was repeated using human MCSF in serum, MDA231 conditioned medium (which contains M-CSF), cynomologous monkey MCSF in serum, and cynomologous monkey recombinant MCSF. The results are presented in FIGS. 25 (recombinant MCSF), 26 (human MCSF in serum) and 27 (MDA231 conditioned medium) as the fluorescent reading from CellTiter Glo assay, which is linear with cell number. […]

IC50 Fold Loss: No loss
B1: heRX1-10.G4: Human Engineered RX1 construct 10 with IgG4 constant region; named only in Table 12 (antibody)
heavy: QVQLQESGPGLVKPSQTLSLTCTVSDYSITSDYAWNWIRQFPGKGLEWMGYISYSGSTSYNPSLKSRITISRDTSKNQFSLQLNSVTAADTAVYYCASFDYAHAMDYWGQGTTVTVSS
light: DIVLTQSPAFLSVTPGEKVTFTCQASQSIGTSIHWYQQKTDQAPKLLIKYASESISGIPSRFSGSGSGTDFTLTISSVEAEDAADYYCQQINSWPTTFGGGTKLEIKRT
modifications: left off: a dimerising Fc or GST
